No end group written: not given here.

Experiment in all cases: stopped-flow fluorescence
Assay [1] deals with wild-type calmodulin (His-CaM) (rat, UniProt P0DP29 1-149).
In assay [2] the target is N-lobe mutant of calmodulin (CaM12) (rat, UniProt P0DP29 1-149, D20 to alanine | D56 to alanine).
Assay [3] deals with C-lobe mutant of calmodulin (CaM34) (rat, UniProt P0DP29 1-149, D93 to alanine | D129 to alanine).

For IKPAKRMKFKTVCYLLVQLMHCRKMFKA (C-terminal amide) [AC1-C1b peptide], the binding result in assay [1] and in assay [2] was “binds” in each case.

On to GSRPQRLLWQTAVRHITEQRFIHGH-NH2 [AC8-Nt peptide], for which the binding result in assay [1] and in assay [2] was “binds” throughout.

For the molecule YSLAAVVLGLVQSLNRQRQKQLLNE-NH2 [AC8-C2b peptide], the binding result in assay [1] and in assay [3] was “binds” in each case.

Values taken from article PMC3466776 (Biochemistry, 2012).
